# Patent publication US20170014503A1
# Where no end group is shown, it is not given here.
# Target: 2F5 mAb
# Assay: cell-based or functional assay
binder,measurement,value
"QQEKNEQELLELDKWASLWN (not fully specified) [SP62 peptide gp41 652-671, biotinylated]",IC50 of 2F5 mAb against TND-669S Env-pseudovirus after pre-absorption with 0.3 µM peptide,0.911
